Test results: patent US20040123344A1, “Novel gene encoding an f-box protein which regulates leaf longevity in arabidopsis thaliana and mutant gene thereof” (priority 2000, published 2004)

Assays:
ASK2(1-172) = molecular target: T1, ASK2(1-172) (Arabidopsis thaliana, UniProt Q9FHW7); experiment: Yeast two-hybrid assay with ASK2; assay type: cell-based; conditions: HF7c yeast
T1 construct: the plasmid pGAD424-ASK2(1-172)[4] was constructed by inserting a BamHI/PstI fragment of pGTE-ASK2(1-172) into pGAD424; expressed in transfected cells; host or cells: Saccharomyces cerevisiae HF7c
T1 sequence (Q9FHW7 1-171): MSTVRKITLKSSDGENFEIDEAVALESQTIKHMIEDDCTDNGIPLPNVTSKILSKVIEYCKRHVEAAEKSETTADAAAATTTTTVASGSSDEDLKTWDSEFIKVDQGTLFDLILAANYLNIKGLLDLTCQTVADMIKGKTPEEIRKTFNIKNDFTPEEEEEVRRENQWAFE
Source text: As expression vectors of expressing GAL4 DNA binding domain (GAL4-BD) and ORE9 fusion protein, plasmids pGBT9-ORE9 (1-49) and pGBT9-ORE9 (50-693) were constructed. The plasmid pGBT9-ORE9 expresses a fragment of ORE9 containing N-terminal 1-49th amino acids corresponding to an F-box region of ORE9, and the plasmid pGBT9-ORE9 (50-693) expresses a fragment of ORE9 containing 50-693th amino acids from which the F-box region was removed.
First, the gene encoding the ORE9 (1-49) fragment was amplified by PCR using a primer represented by SEQ ID NO: 10 and SEQ ID NO: 11, and then inserted into BamHI and PstI restriction enzyme sites of pGBT9 (Clontech, USA) containing a 4-BD gene and a tryptophan auxotrophic selection marker gene (TRP1), thereby constructing the plasmid pGBT9-ORE9 (1-49). Similarly, the plasmid pGBT 9-ORE9 (50-693) was constructed, which expresses an ORE9 (50-693) fragment and a GAL4-BD fusion protein. In this case, oligonucletides represented by SEQ ID NO: 12 and SEQ ID NO: 13 were used as PCR primers to amplify the gene encoding the ORE9 (50-693) fragment. […]

GST-ASK1 fusion protein = molecular target: T2, GST-ASK1 fusion protein (Arabidopsis thaliana, UniProt Q39255); experiment: In vitro binding assay with GST-ASK1 fusion protein; conditions: 35S-labeled in vitro translation product; glutathione beads; GST as negative control
T2 construct: made in house; host or cells: Escherichia coli BL21(DE3) pLysS
T2 sequence (Q39255 1-160): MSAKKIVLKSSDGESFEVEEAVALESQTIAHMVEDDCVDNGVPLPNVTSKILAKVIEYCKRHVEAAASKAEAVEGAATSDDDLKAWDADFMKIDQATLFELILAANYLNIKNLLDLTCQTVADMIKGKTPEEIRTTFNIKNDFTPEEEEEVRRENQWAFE
Source text: In order to examine that ORE9 protein or derivatives thereof directly bind with ASK1, a GST-ASK1 fusion protein and a ^35S-labeled ORE9 protein produced by in vitro translation were subjected to in vitro binding assay. To obtain a glutathione S-transferase (GST) protein and a GST-ASK1 fusion protein, a vector pGEX (APBiotech, Co.) and a vector pGEX-ASK1 were constructed, which express the above proteins, respectively. Artificial sequences represented by SEQ ID NO: 14 and SEQ ID NO: 15 were used as PCR primers to amplify a gene encoding the ASK1 fragment. The resulting PCR product was digested with EcoRI and NcoI restriction enzymes, and inserted into the restriction enzyme sites of the pGEX vector. Escherichia coli BL21(DE3) pLysS was transformed with the resulting two vectors, and GST and GST-ASK1 fusion proteins were expressed. The GST and GST-ASK1 fusion proteins were purified by chromatography with glutathione-Sepharose 4B beads. The purified proteins was subjected to electrophoresis with SDS-polyacryamide gets, dyed with Coomassie blue, and measured for their amount. GST and GST-ASK1 fusion proteins of the same amount were added to glutathione beads, which had been previously washed with 10-fold volume of B buffer (20 mM […], pH 7.6, 150 mM sodium chloride, 10% glycerol, 0.5% NP-40, 1 mM DTT) three times. Then, the resulting proteins were adsorbed 4° C. for one hour using a rotating mixer. The provided beads were washed with 1 ml B buffer three times, and then stored in a state where the ratio of slurries relative to B buffer is 50%.
Meanwhile, a radioactivity-labeled ORE9 (1-693), the mutant type ore9 and ORE9 derivatives (1-327 and 50-693) were prepared using the in vitro transcription/translation system (Promega, USA) and [^35S]-methionine (DuPont NEN, USA). The proteins were quantitatively analyzed with SDS-PAGE and BAS radioanalytic imaging system (Japan). Then, the respective ^35S-labeled translation products of the same amount were mixed with 60 μl GST-adsorbed beads or GST-ASK1 fusion protein-absorbed beads, contained in 1 ml GB buffer (final concentration: 20 mM Tris-HCl, pH 7.5, 0.15% NP-40, 150 mM NaCl, 1 mM EDTA). The resulting beads were cultured in a rotating mixer at 4° C. for two hours, and then washed with 1 ml GB buffer four times. The washed beads were added with 30 μl of 2×SDS sample solutions, boiled for three minutes and then isolated with SDS-PAGE. The resulting gels were dried to dryness, and then exposed to X-ray film.

B1: ore9: mutant protein with early translation termination, 8 LRRs, SEQ ID NO: 3 (protein, listed as Arabidopsis thaliana)
chain: MASTTLSDLPDVILSTISSLVSDSRARNSLSLVSHKFLALERSTRSHLTIRGNARDLSLVPDCFRSISHLDLSFLSPWGHTLLASLPIDHQNLLALRLKFCFPFVESLNVYTRSPSSLELLLPQWPRIRHIKLLRWHQRASQIPTGGDFVPIFEHCGGFLESLDLSNFYHWTEDLPPVLLRYADVAARLTRLDLLTASFTEGYKSSEIVSITKSCPNLKTFRVACTFDPRYFEFVGDETLSAVATSSPKLTLLHMVDTASLANPRAIPGTEAGDSAVTAGTLIEVFSGLPNLEELVLDVGKDVKHSGVALEALNSKCKKLRVLKLG
For B1, the “binding with ASK2 in yeast two-hybrid assay” value (ASK2(1-172)) was “didn't bind to each other” and the “binding (co-precipitation) with GST-ASK1” value (GST-ASK1 fusion protein) was “co-precipitated with the GST-ASK1 fusion protein”.
